This note sets out measurements from publication PMC4161474.

What all share (assay): co-IP; HEK293 cells co-transfected with Flag-HBx wt or alanine substitution mutants and His-myc-Spin1; precipitated with anti-Flag antibodies, anti-Myc and anti-Flag blots quantified with the Odyssey system; signal normalised to HBx in the IP/HBx in the input, Flag-HBx wt set to 100% (Figure 1C)
Assay [1] addresses Flag-HBx Cm13, clustered alanine substitution mutant (Hepatitis B virus) (UniProt P69713).
In assay [2] the target is Flag-HBx Cm5, clustered alanine substitution mutant (Hepatitis B virus) (UniProt P69713).
In assay [3] the target is Flag-HBx Cm7, clustered alanine substitution mutant (Hepatitis B virus) (UniProt P69713).
In assay [4] the target is Flag-HBx Cm8, clustered alanine substitution mutant (Hepatitis B virus) (UniProt P69713).
The target in assay [5] is Flag-HBx Cm9, clustered alanine substitution mutant (Hepatitis B virus) (UniProt P69713).

On to “His-Myc-Spindlin1 (from UniProt Q9Y657 1-262) (natural protein)”, for which the percent of Spindlin1 immunoprecipitated (Flag-HBx wt = 100%) in assay [1] worked out at 29%; in assay [2], 10%; in assay [3], 13%; in assay [4] it was 52%; in assay [5] it was 28%.
